This note sets out measurements from patent publication US20110293610A1 (published 2011).

Assay [1] has as its target T1, B Lymphocyte Stimulator, soluble form (human) (human, UniProt Q9Y275 134-285, biotinylated with NHS-biotin where used as biotinylated B Lymphocyte Stimulator).
T1 construct: Coated on plastic, captured on streptavidin plates, amine-coupled to a CM5 chip or free in solution, depending on the assay; also called BLyS; immobilized B Lymphocyte Stimulator
The experiment in a line: phage competition ELISA.

In a further assay the target is T2, TRAIL (human, UniProt P50591 114-281).
T2 construct: also called TNF-related apoptosis inducing ligand
T2 sequence (P50591 114-281 limits assumed): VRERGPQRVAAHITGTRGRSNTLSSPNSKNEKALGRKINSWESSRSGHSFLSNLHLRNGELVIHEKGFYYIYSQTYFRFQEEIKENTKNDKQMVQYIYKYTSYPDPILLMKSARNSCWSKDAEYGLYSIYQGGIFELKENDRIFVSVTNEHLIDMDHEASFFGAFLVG
The experiment in a line: phage ELISA. (In general: In an ELISA, binding on a coated surface is turned into a signal by an enzyme label.)

Assay [2] deals with T3, membrane-bound B Lymphocyte Stimulator on U937 plasma membrane preparations (human, UniProt Q9Y275 1-285).
T3 construct: Natural protein in plasma membrane fractions of the human cell line U937 coated on ELISA plates; also called U937 plasma membranes; U937 membranes
The assay is described as follows: phage ELISA.

In another assay the target is T4, Fas ligand (human, UniProt P48023 134-281, limits assumed).
T4 sequence (looked up): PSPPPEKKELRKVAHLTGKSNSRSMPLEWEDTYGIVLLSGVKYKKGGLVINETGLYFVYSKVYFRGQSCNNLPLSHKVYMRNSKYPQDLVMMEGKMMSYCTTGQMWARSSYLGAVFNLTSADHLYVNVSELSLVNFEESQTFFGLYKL
The experiment in a line: phage ELISA.

A further assay has as its target T5, TNF-beta (human, UniProt P01374 35-205).
T5 construct: also called TNFβ; Tumour Necrosis Factor-beta
T5 sequence (looked up): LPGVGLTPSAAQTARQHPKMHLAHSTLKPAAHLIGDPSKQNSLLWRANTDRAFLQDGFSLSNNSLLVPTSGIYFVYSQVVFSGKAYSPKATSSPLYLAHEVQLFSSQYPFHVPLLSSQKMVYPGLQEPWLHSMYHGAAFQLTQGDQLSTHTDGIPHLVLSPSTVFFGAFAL
The assay is described as follows: phage ELISA.

In a further assay the target is T6, TNF-alpha (human, UniProt P01375 77-233).
T6 construct: also called TNFα; TNF-α
T6 sequence (P01375 77-233 limits assumed): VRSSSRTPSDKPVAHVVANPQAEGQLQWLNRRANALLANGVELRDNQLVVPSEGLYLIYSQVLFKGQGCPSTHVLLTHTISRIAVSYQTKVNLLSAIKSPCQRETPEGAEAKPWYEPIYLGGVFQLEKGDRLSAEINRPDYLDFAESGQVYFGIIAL
The experiment in a line: phage ELISA.

B1: I031G08 (scFv)
scFv: QVQLVQSGAEVKKPGSSVKVSCRASGGSFIDDSINWLRQAPGQGLEWVGGTIPLANRANYAQKFRDRATITADELTATVFLELTSLRSDDTALYYCARSSPPKWYDALTGHSSYHSAMDVWGRGTLVTVSSGGGGSGGGGSGGGGSAQSVLTQPPSASGTPGQRVTISCSGTNSNIGGNTVNWYQQLPGTAPRLLIYSNNQRPSGVPDRFSGSKSGTSASLAISGLQSEDEADYYCAARDDRLNAHVVFGGGTKVTVLG
As for B1, the binding result in assay [1] is on record as “binds”; in the assay with TRAIL it was “no binding”; in assay [2], “binds”; with Fas ligand, “no binding”; with TNF-beta, “no binding”; with TNF-alpha, “no binding”.

B2: I031F09 (scFv)
scFv: QVQLVQSGAEVKKPGASVKVSCTVSGDSFSRHGISWVRQAPGQGLEWMGWISVYNGDTKYAQKVQGRVTMTTDTSTNTVYMELRRLRSDDTAVYYCARDEGRDLLTGYYWPNFFDSWGRGTLVTVSSGGGGSGGGGSGGGGSALSYVLTQPPSASGTPGQRVTISCSGSRPNIGGNTVNWYQQLPGAAPKLLIYSNSQRPSGVPDRFSGSKYGTSASLAISGLQSDDEADYYCAAWDDSLTGPVFGGGTKLTVLG
Consider B2, for which the binding result was “binds” in assay [1]; “no binding” with TRAIL; “binds” in assay [2]; “no binding” with Fas ligand; “no binding” with TNF-beta; “no binding” in the assay with TNF-alpha.

B3: I031G11 (scFv)
scFv: QVQLVQSGAEVKKPGASVKVSCTVSGDSFSRHGISWVRQAPGQGLEWMGWISVYNGDTKYAQKVQGRVTMTTDTSTNTVYMELRRLRSDDTAVYYCARDEGRDLLTGYYWPNFFDSWGRGTLVTVSSGGGGSGGGGSGGGGSALSYVLTQPPSVSGTPGQKVTISCSGSRPNIGGNTVNWYQQLPGAAPKLLIYSNSQRPSGVPDRFSGSKYGTSASLAISGLQSDDEADYYCAAWDDSLTGPVFGGGTKLTVLG
Take B3: the binding result is on record as “binds” in assay [1]; “no binding” with TRAIL; “binds” in assay [2]; “no binding” with Fas ligand; “no binding” with TNF-beta; “no binding” with TNF-alpha.

B4: I031F02 (scFv)
scFv: QVQLVQSGAEVRKPGSSVKVSCKASGGSFSSHVFSWVRQAPGQGLEWVGGITPKFATPNYAQKFQHRVTITADELTRTVFMDLSGLRSEDTAVYYCARGYDSSAFRAFDIWGQGTMVTVSSGGGGSGGGGSGGGGSAQSVLTQPPSVSGAPGQRVTISCTGSSSNIGAGYDVQWYQQLPGTAPKLLIHGNNNRPSGVPDRFSGSKSGTSASLAITGLQDEDEADYYCQSYDSSLSFSGYVFGTGTKVTVLG
Turning to B4, the binding result in assay [1] is reported as “binds”; with TRAIL, “no binding”; in assay [2], “binds”; with Fas ligand, “no binding”; with TNF-beta, “no binding”; with TNF-alpha it was “no binding”.

B5: I012A06 (scFv)
scFv: QVQLQESGPGVVKPSQTLSLTCTVSGVSISSDSYYWSWIRQPAGKGPEWIGRIYPTGSTNYNPSLKSRVTISVDTSKNQFSLQLTSVTAADTAVYYCARGRWDYDLLTGEHLGYYFDYWGRGTLVTVSSGGGGSGGGGSGGGGSALSSELTQDPAVSVALGQTVRITCQGDTLRNYYASWYQQKPGQAPVLVIHSRNNRPSGIPDRFSGSSSGTTASLTITGSQAEDEADYYCNSRDSSGNVIFGGGTKLTVLG
For B5, the binding result in assay [1] is given as “binds”; in the assay with TRAIL it was “no binding”; in assay [2], “binds”; in the assay with Fas ligand, “no binding”; with TNF-beta, “no binding”; with TNF-alpha, “no binding”.

B6: I021B05 (scFv)
scFv: QVQQSGADVKKPGGSLRLSCAASGFTFSSYSMNWVRQAPGKGLEWVSSISSSSSYIYYADSVKGRFTISRDNAKNSLYLQMNSLRAEDTAVYYCAREGGNYDILTGYYIGNGAFDIWGRGTMVTVSSGGGGSGGGGSGGGGSQSVLTQPASVSGSPGQSITISCTGTSSDVGGYNYVSWYQQHPGKAPKLMIYEGSKRPSGVSNRFSGSKSGNTASLTISGLQAEDEADYYCSSYTTRSTRVFGGGTKLTVLG
B6: the binding result in assay [1] was “binds”; in the assay with TRAIL, “no binding”; in assay [2], “binds”; in the assay with Fas ligand, “no binding”; with TNF-beta, “no binding”; in the assay with TNF-alpha, “no binding”.

B7: I031C03 (scFv)
scFv: QMQLVQSGAEVRKPGSSVKVSCKASGGSFSSHVFSWVRQAPGQGLEWVGGITPKFATPNYAQKFQHRVTITADELTRTVFMDLSGLRSEDTAVYYCARGYDSSAFRAFDIWGQGTLVTVSSGGGGSGGGGSGGGGSAQSVLTQPPSVSAAPGQKVTISCSGSSSNIGNNYVSWYQQFPGTAPKLLIYDNNNRPSGVPDRFSGSKSGTSATLGITGLQTGDEADYYCGTWDRSLSVVVFGGGTKVTVLG
Turning to B7, the binding result in assay [1] is “binds”; in the assay with TRAIL, “no binding”; in assay [2], “binds”; with Fas ligand it was “no binding”; in the assay with TNF-beta, “no binding”; in the assay with TNF-alpha, “no binding”.

B8: I026E03 (scFv)
scFv: EVQLVQSGGEVKRPGASVKVSCKASGYTFSRYGISWVRQAPGQGLEWMGWISAYNGKTSFAEKFQGRVTLTTDTSTTTVDMELRNLRSDDTAVYYCARTDYDILTGYPMGYFDPWGKGTLVTVSSGGGGSGGGGSGGGGSALSSELTQDPAVSVALGQTVKITCQGDSLRSFYAAWYQQKPGQAPILVISGKNNRPSGIPDRFSGSSSGNTASLTITGAQAEDEADYYCNSRDTSGNHYVFGAGTKLTVLG
Regarding B8, the binding result was “binds” in assay [1]; “no binding” with TRAIL; “binds” in assay [2]; “no binding” with Fas ligand; “no binding” in the assay with TNF-beta; “no binding” with TNF-alpha.

B9: I031C07 (scFv)
scFv: EVQLVQSGAEVKKPGSSVKVSCRASGGSFIDGSINWLRQAPGQGLEWVGGTIPLANRANYAQKFRDRVTITADELTAIVFLELTSLRSDDTALYYCARSSPPRWYDALTGDSSYHSAMDVWGQGTMVTVSSGGGGSGGGGSGGGGSAQSALTQPPSASGSPGQSVTISCSGTSSDIGDSNSVSWYQQHPGKAPKLLIYEVTKRPSGVPDRFAGSRSDNTASLTVSGLQTEDEADYYCSSSAARNHLVFGGGTKVTVLG
In the case of B9, the binding result in assay [1] is given as “binds”; with TRAIL, “no binding”; in assay [2], “binds”; with Fas ligand, “no binding”; with TNF-beta it was “no binding”; with TNF-alpha, “no binding”.

B10: I028A06 (scFv)
scFv: QVQLVESGGGLIQPGGSLRLSCAASGFSFGSYAMSWIRQAPGKGLEWVSTSTGRGGSTYYADSVKGRFTISRDNAKNSLYLQMNSLRAEDAAVYYCARGGDYDILTGLYYYGMDVWGKGTMVTVSSGGGGSGGGGSGGGGSSYVLTQPPSVSGTPGQRVTISCSGGRSNIGSNTVKWYQQLPGTAPKLLIYGNDQRPSGVPDRFSGSKSGTSASLAITGVQAEDEADYYCQSYDSSLRGSRVFGTGTKVTVLG
For B10, the binding result in assay [1] is “binds”; with TRAIL, “no binding”; in assay [2], “binds”; with Fas ligand, “no binding”; with TNF-beta, “no binding”; with TNF-alpha, “no binding”.

B11: I031G10 (scFv)
scFv: QVQLVQSGAEVKKPGSSVKVSCRVSGGSFTDDSINWLRQAPGQGLEWVGGTIPLANRANYAQKFRDRVTITADELTATVFLELTSLRSDDTALYYCARSSPPKWYDALTGDSSYHSAMDVWGRGTLVTVSSGGGGSGGGGSGGGGSAQSVVTQPPSVSAAPGQKVTISCSGSTSNIGRNYVSWYQQLPGTATKLLIYDNNKRPSGIPDRFSGSKSGTSATLGITGLQTGDEADYYCGTWDSSLRIYVFGTGTKVTVLG
Turning to B11, the binding result in assay [1] is listed as “binds”; with TRAIL, “no binding”; in assay [2], “binds”; with Fas ligand, “no binding”; with TNF-beta, “no binding”; with TNF-alpha it was “no binding”.
